Measurements: patent US20090263323A1

Target: NADPH oxidase 3 (NOX3)
Assay: cell-based or functional assay

- PMA-induced superoxide generation of NOX3 (co-transfected HEK293 cells): 2 fold
Substance: p67^phox/NOXA2
